Test results taken from publication PMC6160918, “Stabilization of the CD81 Large Extracellular Loop with De Novo Disulfide Bonds Improves Its Amenability for Peptide Grafting” (Pharmaceutics, 2018).
Positions count from the first letter of the chain named. Each block holds one binder with its values, some of them ahead of it.

Tests used:
[1] = molecular target: T1, wild-type human CD81 large extracellular loop (human), P60033; experiment: SEC-MALS; Superdex 200 Increase 10/300 GL, PBS with 200 mM NaCl, 0.75 mL/min, 200 µg of protein at about 2 mg/mL loaded; in-line MALS (miniDAWN TREOS II); conditions: remark: other sources report otherwise
T1 chain: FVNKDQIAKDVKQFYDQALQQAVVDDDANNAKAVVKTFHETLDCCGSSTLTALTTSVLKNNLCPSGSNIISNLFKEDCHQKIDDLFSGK

[2] = molecular target: the molecule itself; experiment: not stated; prescreening of mutants expressed in HEK293-6E at a 2-mL scale; how the dimer was seen is not told

stoichiometry N [1]: 2
B1: wild-type human CD81 large extracellular loop, P60033 113-201 (domain or fragment)
chain: T1 chain

B2: hCD81 LEL variant C10 (Val169Cys/Leu174Cys) (domain or fragment, human, UniProt P60033 113-201, looked up)
chain: T1 chain with V57C, L62C
notes: human CD81, large extracellular loop, fragment Phe113-Lys201; numbering according to PDB entry 1G8Q; Excluded from further analysis because of the dimer it formed; the dimer may be a disulfide-linked one (surmise); source: HEK293-6E, transfected, 2-mL scale (prescreening)
stoichiometry N [2]: 2
